Results from patent US7119185.

Key:
[1] = molecular target: histone H1
[2] = molecular target: myelin basic protein

B1: Hunk (hormonally up-regulated, neu-tumor-associated kinase), murine, 714-amino-acid ~80-kDa polypeptide (protein)
chain: MPAAAGDGLLGEPAAPGGDGGAEDTTRPAAACEGSFLPAWVSGVSRERLRDFQHHKRVGNYLIGSRKLGEGSFAKVREGLHVLTGEKVAIKVIDKKRAKKDTYVTKNLRREGQIQQMIRHPNITQLLDILETENSYYLVMELCPGGNLMHKIYEKKRLDEAEARRYIRQLISAVEHLHRAGVVHRDLKIENLLLDEDNNIKLIDFGLSNCAGILGYSDPFSTQCGSPAYAAPELLARKKYGPKIDVWSIGVNMYAMLTGTLPFTVEPFSLRALYQKMVDKAMNPLPTQLSTGAVNFLRSLLEPDPVKRPNIQQALANRWLNENYTGKVPCNVTYPNRISLEDLSPSVVLHMTEKLGYKNSDVINTVLSNRACHILAIYFLLNKKLERYLSGKSDIQDSICYKTQLYQIEKCRATKEPYEASLDTWTRDFEFHAVQDKKPKEQEKRGDFLHRPFSKKLDKNLPSHKQPSPSLITQLQSTKALLKDRKASKSGFPDKDSFVCRNLFRKTSDSNCVASSSMEFIPVPPPRTPRIVKKLEPHQPGPGSASILPKEEPLLLDMVRSFESVDREDHIELLSPSHHYRILSSPVSLARRNSSERTLSQGLLSGSTSPLQTPLHSTLVSFAHEEKNSPPKEEGVCSPPPVPSNGLLQPLGSPNCVKSRGRFPMMGIGQMLRKRHQSLQPSSERSLDASMSPLQPIAPSSLSFDMADGVKGQC
in vitro kinase assay of Hunk immunoprecipitates with [gamma-32P]ATP [1]: Hunk immunoprecipitates were able to phosphorylate both histone H1 and MBP in vitro
in vitro kinase assay of anti-Hunk (C-terminal antisera) immunoprecipitates from lactating mammary glands [1]: Hunk-associated kinase activity was substantially greater in immunoprecipitates prepared from transgenic when compared with wild type mammary glands
in vitro kinase assay of Hunk immunoprecipitates with [gamma-32P]ATP [2]: Hunk immunoprecipitates were able to phosphorylate both histone H1 and MBP in vitro
